Test results published in patent US20220204630A1 (SUNSHINE LAKE PHARMA, published 2022).
Values belong to the binder of their own block, whether it stands above or below them.

Assays:
[1] = target: T1, Mouse-TrKA protein (mouse, UniProt Q3UFB7 34-420, limits assumed); assay: ELISA, hybridoma supernatant on Mouse-TrKA
T1 construct: also called Mouse-TrKA receptor
Text: The binding of monoclonal antibodies produced by the supernatant of each positive clone to the Mouse-TrKA receptor was detected by ELISA method, and the human-mouse cross reaction of positive clones producing monoclonal antibodies was detected. In FIG. 3, the OD₄₅₀ value reflects the strength of the binding of the antibody to the protein. The larger the reading, the stronger the binding of the antibody to the protein. […] It can be seen that clones 23E12, 21E5, 15D4, and 27H3 can produce monoclonal antibodies that bind to both Human-TrKA and Mouse-TrKA, and there is a human-mouse cross reaction.

[2] = target: T2, TrkA protein on HEK-293T-TrkA cells or NIH-3T3-TrkA cells (human, UniProt P04629 33-796); assay: flow cytometry on HEK-293T-TrKA cells
T2 construct: whole, on cells; Printed only as TrkA for these cells; also called TrkA protein on the membrane of NIH-3T3-TrkA cells
T2 sequence (P04629 33-796): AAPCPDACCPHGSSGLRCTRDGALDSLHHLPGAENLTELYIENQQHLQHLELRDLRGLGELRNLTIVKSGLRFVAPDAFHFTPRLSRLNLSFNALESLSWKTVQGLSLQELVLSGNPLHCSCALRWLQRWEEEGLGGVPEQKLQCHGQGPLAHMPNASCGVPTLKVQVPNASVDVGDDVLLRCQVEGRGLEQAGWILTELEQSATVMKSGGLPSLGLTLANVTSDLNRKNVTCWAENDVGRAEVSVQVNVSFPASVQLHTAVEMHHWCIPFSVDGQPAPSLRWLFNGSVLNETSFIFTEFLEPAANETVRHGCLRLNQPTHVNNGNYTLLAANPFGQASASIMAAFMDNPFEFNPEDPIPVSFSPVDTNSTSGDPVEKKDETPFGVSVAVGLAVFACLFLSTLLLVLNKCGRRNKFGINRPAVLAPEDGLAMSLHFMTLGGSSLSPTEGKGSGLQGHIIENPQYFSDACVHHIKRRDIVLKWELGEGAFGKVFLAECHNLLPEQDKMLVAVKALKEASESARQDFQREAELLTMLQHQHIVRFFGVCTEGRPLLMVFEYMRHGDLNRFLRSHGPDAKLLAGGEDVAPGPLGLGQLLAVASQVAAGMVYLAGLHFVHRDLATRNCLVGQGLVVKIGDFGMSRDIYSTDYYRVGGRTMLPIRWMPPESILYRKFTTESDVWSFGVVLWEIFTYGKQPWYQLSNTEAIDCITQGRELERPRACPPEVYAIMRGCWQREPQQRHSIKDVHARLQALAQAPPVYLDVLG
Text: (§1) In FIG. 7, the EC₅₀ (half-binding concentration) value reflects the affinity of the antibody. The smaller the EC₅₀ value, the higher the affinity of the antibody.

[3] = target: T2, TrkA protein on HEK-293T-TrkA cells or …; assay: flow cytometry, antibody titrated on HEK-293T-TrKA cells, Parent %
Text: as §1

[4] = target: T2, TrkA protein on HEK-293T-TrkA cells or …; assay: cell-based or functional assay
[5] = target: T2, TrkA protein on HEK-293T-TrkA cells or …; assay: flow cytometry competition: antibody titrated against biotinylated NGF binding to HEK-293T-TrkA cells, % parent
[6] = target: T3, TRKA protein with a histidine tag (human, UniProt P04629 33-423, limits assumed); assay: BLI (Fortebio Octet RED96), His-tagged TRKA on Ni-NTA sensor, antibody 80-2.93 nM
T3 construct: it is put last here only for order; also called TRKA (50 µg/ml, 75 kDa, provided by HEC Labs); not shown: histidine tag
T3 sequence (P04629 33-423 limits assumed): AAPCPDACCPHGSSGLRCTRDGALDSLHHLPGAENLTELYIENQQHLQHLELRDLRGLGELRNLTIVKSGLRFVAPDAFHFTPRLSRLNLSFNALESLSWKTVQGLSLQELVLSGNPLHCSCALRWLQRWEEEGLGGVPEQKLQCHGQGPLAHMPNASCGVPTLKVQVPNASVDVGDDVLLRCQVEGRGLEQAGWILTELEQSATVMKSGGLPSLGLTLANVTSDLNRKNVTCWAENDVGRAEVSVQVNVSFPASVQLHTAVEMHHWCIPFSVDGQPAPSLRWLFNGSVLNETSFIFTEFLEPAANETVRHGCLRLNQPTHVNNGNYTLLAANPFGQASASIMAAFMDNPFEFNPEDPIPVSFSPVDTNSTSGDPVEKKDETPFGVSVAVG
Description: They were added to each well of the sample plate. […] The KD value is the equilibrium dissociation constant between the antibody and its antigen, and the KD value is inversely proportional to the affinity. The KD value is related to the antibody concentration (the amount of antibody required for a particular experiment). The lower the KD value (the lower the concentration), the higher the affinity of the antibody. High-affinity antibodies are generally considered to be in the low nanomolar range (10⁻⁹).

[7] = target: T4, TrKA receptor protein coated in ELISA (Examples 11 and 16) (human, UniProt P04629 33-423, limits assumed); assay: ELISA plateau, antibody up to 20 µg/mL on TrKA
T4 construct: also called Human-TrKA
T4 sequence (P04629 33-423 limits assumed): as above
Description: The TrkA receptor family belongs to receptor tyrosine kinases (RTKs), including TrkA, TrkB, and TrkC, which have high homology. TrkA is a receptor tyrosine kinase of nerve growth factor (NGF) that selectively binds to NGF and is a functional receptor for NGF. In addition to the high-affinity receptor TrkA, NGF can also bind to its low-affinity receptor p75. In the test, the binding of test antibodies at different concentrations (20 μg/mL, 10 μg/mL, 5 μg/mL, 2.5 μg/mL, 1.25 μg/mL, 0.625 μg/mL, 0.313 μg/mL, 0.156 μg/mL, 0.078 μg/mL, 0.039 μg/mL, 0.019 μg/mL) to TrKA, TrKB, TrKC, and P75 respectively was detected by the ELISA method, and the specificity of the test antibody binding to the target TrKA was evaluated. In the FIG. 8, at a certain antibody concentration, the OD₄₅₀ value reflects the binding strength of the antibody to the protein. The larger the reading, the stronger the binding of the antibody to the protein. […] It can be seen that the specificity of the binding of the test antibodies to the target TrKA is very good.

[8] = target: T4, TrKA receptor protein coated in ELISA …; assay: competition ELISA: antibody titrated against biotinylated NGF binding to TrkA, OD450

T1 sequence (Q3UFB7 34-420 limits assumed): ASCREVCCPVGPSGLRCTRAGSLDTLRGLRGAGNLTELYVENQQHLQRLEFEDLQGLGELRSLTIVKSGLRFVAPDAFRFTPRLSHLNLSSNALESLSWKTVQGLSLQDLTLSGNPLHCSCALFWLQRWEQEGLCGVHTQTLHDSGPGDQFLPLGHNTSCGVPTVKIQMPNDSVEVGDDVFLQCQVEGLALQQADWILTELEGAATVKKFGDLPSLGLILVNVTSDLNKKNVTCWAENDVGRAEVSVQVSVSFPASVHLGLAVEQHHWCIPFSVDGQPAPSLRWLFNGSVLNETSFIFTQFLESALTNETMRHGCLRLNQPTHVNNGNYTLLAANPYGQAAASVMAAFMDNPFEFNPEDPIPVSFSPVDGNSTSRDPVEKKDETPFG

B2: 1B9 chimeric antibody (antibody, human IgG4 S228P, kappa, F234A L235A, V domains shown)
VH: QVHLQQSGAELMKPGASVKISCKATGYTFNIYWIDWVKQRPGHGLEWIGEILPGSGNTHYNENFKGKATMTADTSSNTAYMQLTSLTSEDSAVYYCARTDGRGYFDYWGQGTTLTVSS
VL: DIVLTQSPASLVVSLGQRATISCRTSKSVSSSAYSYMHWYQQKPGQPPKVLIYLASNLESGVPARFSGSGSGTDFTLNIHPVEEEDAATYYCQHSRELPFTFGSGTKLEIKR
notes: expressed in CHO cells
EC50 [2]: < 1.5 µg/mL | EC50 [3]: 0.0372 µg/mL | IC50; p-TrkA level by AlphaLISA in NGF-stimulated NIH3T3-TrkA stable cell line [4]: 0.0473 µg/mL | IC50 [5]: 0.334 µg/mL | Kd [6]: 0.899 nM | koff [6]: 0.000904 s⁻¹ | kon [6]: 1.01e+06 M⁻¹ s⁻¹ | OD450 [7]: ~3 OD450

B4: 2A5 chimeric antibody (antibody, human IgG4 S228P, kappa, F234A L235A, V domains shown)
VH: EVQLQQSGPELVKPGASMKISCKASGYSFTGYTMNWVKQSHGKNLEWIGLINPYNGGTNYNQKFKGKATLTVDKSSSTAYMELLSLTSEDSAVYYCAFSYYGSRGFYFDYWGQGTTLTVSS
VL: QIVLTQSPALMSASPGEKVTMTCSATSSVSYIYWYQQKPRSSPKPWIYLTSNLASGVPARFSGSGSGTSYSLTISSMEAEDAATYYCQQWSSNPPTFGGGTKLEIKR
notes: expressed in CHO cells
EC50 [2]: < 1.5 µg/mL | IC50 [8]: 1.06 µg/mL | EC50 [3]: 0.312 µg/mL | IC50 [5]: 4.8 µg/mL | Kd [6]: 0.0162 nM | koff [6]: 3.6e-06 s⁻¹ | kon [6]: 222000 M⁻¹ s⁻¹ | OD450 [7]: ~3 OD450

B6: mouse monoclonal antibody produced by hybridoma clone 23E12 (antibody, V domains shown)
VH: QVQLQQSGAELVRPGTSVKISCKASGYAFTNYWLGWMKQRPGHGLEWIGDFYPRTGNTFYNENFKGKVTLTADKSSNTAYMQLSSLTSEDSAVYLCARAGTGFDYWGQGTTLTVSS
VL: SIVMTQSPKSMSMSVGERVTLSCKASENVGGYVSWYQQKPDQSPKLLIYGASSRHTGVPDRFTGSGSETDFTLTISSVQAEDLAAYHCGQNYIYPFTFGGGTKLEIK
notes: also called 23E12 (positive clone supernatant)
OD450 [1]: ~3.5 OD450

B7: 2008 chimeric antibody (antibody, human IgG4 S228P, kappa, F234A L235A, V domains shown)
VH: EVLLQQSGPELVKPGASMKISCKASVYSFTAYTMNWVKQSHGKNLEWIGLINPHNGGTRYNQKFKGKATLTLDKSSSTAYMDLLSLTSEDSAVYYCAISRYGSSSFYFDVWGAGTTVAVSS
VL: QIVLSQSPAILSASPGEKVTMTCRASSSISYMHWYQQKPGSSPKPWISATSNLASGVPARFSGSGSGTSYSLTISGVEAEDAATYYCQQWSSNPPTFGGGTNLEIKR
notes: also called 20C8
EC50 [2]: < 1.5 µg/mL | IC50 [8]: 0.31 µg/mL | EC50 [3]: 0.136 µg/mL | IC50; p-TrkA level by AlphaLISA in NGF-stimulated NIH3T3-TrkA stable cell line [4]: 0.11 µg/mL | IC50 [5]: 0.822 µg/mL | Kd [6]: 0.115 nM | koff [6]: 6.33e-05 s⁻¹ | kon [6]: 551000 M⁻¹ s⁻¹ | OD450 [7]: ~3 OD450

B10: mouse monoclonal antibody produced by hybridoma clone 21E5 (antibody, V domains shown)
VH: QVQLQQSGAELMKPGASMKISCKATGYTFSTYWIEWVKQRPGHGLEWIGENLPGRHITNYNEKFKGKATFTADTSSNTAYMQLSSLTSEDSAVYYCARGRGTYYFDYWGQGTPLTVSS
VL: DIVMTQAAFSTPVTLGTSASISCRSSQSLLHSNGITYLYWYLQKPGQSPQLLIYQMSNLASGVPDRFSSSGSGTDFTLRISRVEAEDVGVYYCAQNLEFPFTFGSGTKLEIK
notes: also called 21E5 (positive clone supernatant)
OD450 [1]: ~3.5 OD450

B11: MNAC13 (anti-TrKA monoclonal antibody, positive control) (antibody, human IgG4 S228P, kappa, F234A L235A, V domains shown)
VH: EVQLLESGGGLVQPGGSLRLSCAASGFTFSTYTMSWARQAPGKGLEWVAYISKGGGSTYYPDTVKGRFTISRDNSKNTLYLQMNSLRAEDSAVYYCARGAMFGNDFFFPMDRWGQGTLVTVSS
VL: DIVLTQSPSSLSASVGDRVTITCSASSSVSYMHWYQQKPGQAPKLLIYTTSNLASGVPSRFSGSGSGTDYTLTISSLQPEDVATYYCHQWSSYPWTFGGGTKVEIKR
IC50; p-TrkA level by AlphaLISA in NGF-stimulated NIH3T3-TrkA stable cell line [4]: 0.16 µg/mL

B12: mouse monoclonal antibody produced by hybridoma clone 15D4 (antibody, V domains shown)
VH: QVQLQQSGAELMKPGASVKISCKATGYTFSSYWIEWVKQRPGHGLEWLGEFLPRSGKTNYNEEFRGKATFTADTSSNTAYMQLSSLTSEDSAVYYCARTDPPYFGVWGAGTMVAVSS
VL: QIVLTQSPPIMSASPGEKVTMTCSASSNISYMHWYQQKSGTSPKRWIYDTSKLASGVPARFSGSGSGTSYSLTISSMEAEDAATYYCQQWSSVPLTFGAGTKLEIK
notes: also called 15D4 (positive clone supernatant)
OD450 [1]: ~3.5 OD450

More lines, now with the values ahead:

OD450 [1]: ~3.5 OD450
B1: mouse monoclonal antibody produced by hybridoma clone 27H3 (antibody, V domains shown)
VH: QVQLQQSGAELMKPGASVKISCKTTGYRFSSYWIEWVKQRPGHGLEWLGEILPGRGIINYNENFRGKATFTADTSSNTAYVQLSSLTSEDSAVYFCARTDPPYFGVWGAGTTVTVSS
VL: QAVVTQESALTTSPGETVTLTCRSSTGAVTISNYANWVQEKPDHLFTGLIGGTNNRPPGVPARFSGSLIGDKAALTITGAQTEDEAIYFCVLWYSNHWVFGGGTKLTVL
notes: also called 27H3 (positive clone supernatant)

binding result [1]: no binding
B3: mouse monoclonal antibody produced by hybridoma clone 1B9 (antibody, V domains shown)
VH: QVHLQQSGAELMKPGASVKISCKATGYTFNIYWIDWVKQRPGHGLEWIGEILPGSGNTHYNENFKGKATMTADTSSNTAYMQLTSLTSEDSAVYYCARTDGRGYFDYWGQGTTLTVSS
VL: DIVLTQSPASLVVSLGQRATISCRTSKSVSSSAYSYMHWYQQKPGQPPKVLIYLASNLESGVPARFSGSGSGTDFTLNIHPVEEEDAATYYCQHSRELPFTFGSGTKLEIK
notes: also called 1B9 (positive clone supernatant)

binding result [1]: no binding
B5: mouse monoclonal antibody produced by hybridoma clone 2A5 (antibody, V domains shown)
VH: EVQLQQSGPELVKPGASMKISCKASGYSFTGYTMNWVKQSHGKNLEWIGLINPYNGGTNYNQKFKGKATLTVDKSSSTAYMELLSLTSEDSAVYYCAFSYYGSRGFYFDYWGQGTTLTVSS
VL: QIVLTQSPALMSASPGEKVTMTCSATSSVSYIYWYQQKPRSSPKPWIYLTSNLASGVPARFSGSGSGTSYSLTISSMEAEDAATYYCQQWSSNPPTFGGGTKLEIK
notes: also called 2A5 (positive clone supernatant)

binding result [1]: no binding
B8: mouse monoclonal antibody produced by hybridoma clone 2008 (antibody, V domains shown)
VH: EVLLQQSGPELVKPGASMKISCKASVYSFTAYTMNWVKQSHGKNLEWIGLINPHNGGTRYNQKFKGKATLTLDKSSSTAYMDLLSLTSEDSAVYYCAISRYGSSSFYFDVWGAGTTVAVSS
VL: QIVLSQSPAILSASPGEKVTMTCRASSSISYMHWYQQKPGSSPKPWISATSNLASGVPARFSGSGSGTSYSLTISGVEAEDAATYYCQQWSSNPPTFGGGTNLEIK

binding result [1]: no binding
B9: mouse monoclonal antibody produced by hybridoma clone 22D12 (antibody, V domains shown)
VH: EVQLQQSGPELVKPGASMKISCKASGYSITGYTMNWVKQSHGKNLEWIGLVNPYNGGTSYNQKFKGKATLTVDKSSSTAYMELLSLKSEDSAVYYCAISRYGSESWYFDVWGAGTTVTVSS
VL: QIVLSQSPAILSASPGEKVTMTCRATSSVSYMYWYQQKPGSSPKPWIYATSNLASGVPARFSGSGSGTSYSLTISRVEAEDAATYYCQQWSSNPPTFGGGTKLEKK
notes: also called 22D12 (positive clone supernatant)

binding result [1]: no binding
B13: mouse monoclonal antibody produced by hybridoma clone 4H4 (antibody, V domains shown)
VH: EVQLQQSGPELVKPGASMKISCKASGYSFTGYTMNWVKQSHGKNLEWIGLINPYNGGTRYNQKFKGKATLTVDKSSSTAYMELLSLTSEDSAVYYCASSSYRNDGNWYFDVWGAGTTVTVSS
VL: DIVMTQSPAIMSASPGEKVTMTCSASSSVSYMHWYQQKSGTSPKRWIYDTSKLASGVPARFSGSGSGTSYSLTISSMETEDAATYYCQQWSSNPPTFGGGTKLELK
notes: also called 4H4 (positive clone supernatant)
